Changes are numbered by the printed parent chain.
T1: receptor protein CXCR5 (CD185) (human, UniProt P32302 1-372)
T1 sequence: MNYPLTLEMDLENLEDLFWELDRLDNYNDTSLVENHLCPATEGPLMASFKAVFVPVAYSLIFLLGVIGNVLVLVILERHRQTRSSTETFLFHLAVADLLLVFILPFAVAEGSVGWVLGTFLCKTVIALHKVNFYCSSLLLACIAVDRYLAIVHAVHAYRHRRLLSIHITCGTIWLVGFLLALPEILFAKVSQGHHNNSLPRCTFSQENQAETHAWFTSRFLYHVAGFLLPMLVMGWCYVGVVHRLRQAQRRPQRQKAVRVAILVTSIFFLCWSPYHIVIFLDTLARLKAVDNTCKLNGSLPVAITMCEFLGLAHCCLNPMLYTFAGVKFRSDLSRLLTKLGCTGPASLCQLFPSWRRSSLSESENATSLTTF

B1: ADC Example 1c-8987 (anti-CD123 TPP-8987 coupled with Intermediate F325) (antibody, human IgG1, kappa, V domains shown)
VH: QVQLVQSGAEVKKPGSSVKVSCKASGGTFSDYYMKWVRQAPGQGLEWMGDIIPSNGATFYNQKFKGQVTITADESTSTAYMELSSLRSEDTAVYYCARSHLLRASWFAYWGQGTLVTVSS
VL: DIVMTQSPDSLAVSLGERATINCESSQSVLNSGNQKNYLTWYQQKPGQPPKLLIYWASTRESGVPDRFSGSGSGTDFTLTISSLQAEDVAVYYCQNDYSYPYTFGQGTKLEIKR
modifications: KSP inhibitor toxophore-linker of formula (I) (from Intermediate F325) on sulfur atoms of cysteine side chains of the partially reduced antibody; DAR 3.7; positions not given
B2: ADC Example 1c-8988 (anti-CD123 TPP-8988 coupled with Intermediate F325) (antibody, human IgG1, kappa, V domains shown)
VH: EVQLLESGGGLVQPGGSLRLSCAVSDYSITSGYYWNWIRQAPGKKLEWMGYISYDGSNNYNPSLKNGRITISRDTSKNTFYLQMNSLRAEDTAVYYCARGEGFYFDSWGQGTLVTVSS
VL: EIVLTQSPGTLSLSPGERATLSCKSSQSLFFGSTQKNYLAWYQQKPGQAPRLLIYWASTRESGIPDRFSGSGSGTDFTLTISRLEPEDFAVYYCQQYYNYPWTFGQGTKLEIKR
modifications: KSP inhibitor toxophore-linker of formula (I) (from Intermediate F325) on sulfur atoms of cysteine side chains of the partially reduced antibody; DAR 3.5; positions not given
B3: ADC Example 1c-9476 (anti-CD123 TPP-9476 coupled with Intermediate F325) (antibody, human IgG1, kappa, V domains shown)
VH: B1 VH with Q67R
VL: B1 VL
modifications: KSP inhibitor toxophore-linker of formula (I) (from Intermediate F325) on sulfur atoms of cysteine side chains of the partially reduced antibody; DAR 3.1; positions not given
B4: ADC Example 1x-9024 (anti-CXCR5 TPP-9024 coupled with Intermediate F325) (antibody, human IgG1, kappa, V domains shown)
VH: EVQLVESGGGLVQPGKSLKLSCSASGFTFSTSGMHWFRQAPGKGLDWVAYISSSSGFVYADAVKGRFTISRDNAQNTLYLQLNSLKSEDTAIYYCARSEAAFWGQGTLVTVSS
VL: DIVLTQAPRSVSVTPGESASISCRSNKSRLSRMGITPLNWYLQKPGKSPQLLIYRMSNLASGVPDRFSGSGSETDFTLKISKVETEDVGVYYCAQFLEYPPTFGSGTKLEIKR
modifications: KSP inhibitor toxophore-linker of formula (I) (from Intermediate F325) on sulfur atoms of cysteine side chains of the partially reduced antibody; DAR 3.8; positions not given
B5: ADC Example 1x-9574 (anti-CXCR5 TPP-9574 coupled with Intermediate F325) (antibody, human IgG1, kappa, V domains shown)
VH: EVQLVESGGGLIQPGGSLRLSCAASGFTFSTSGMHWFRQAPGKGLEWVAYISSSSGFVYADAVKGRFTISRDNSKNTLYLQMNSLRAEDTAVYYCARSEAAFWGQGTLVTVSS
VL: DIVMTQSPLSLPVTPGEPASISCRSQKSRLSRMGITPLNWYLQKPGQSPQLLIYRMSNLASGVPDRFSGSGSGTDFTLKISRVEAEDVGVYYCAQFLEYPPTFGQGTKLEIKR
modifications: KSP inhibitor toxophore-linker of formula (I) (from Intermediate F325) on sulfur atoms of cysteine side chains of the partially reduced antibody; DAR 4.1; positions not given
B6: ADC Example 1x-9580 (anti-CXCR5 TPP-9580 coupled with Intermediate F325) (antibody, human IgG1, kappa, V domains shown)
VH: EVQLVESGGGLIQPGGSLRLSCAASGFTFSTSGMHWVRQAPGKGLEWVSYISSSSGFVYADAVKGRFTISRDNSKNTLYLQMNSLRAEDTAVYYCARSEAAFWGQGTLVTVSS
VL: B5 VL
modifications: KSP inhibitor toxophore-linker of formula (I) (from Intermediate F325) on sulfur atoms of cysteine side chains of the partially reduced antibody; DAR 4.2; positions not given
B7: reference ADC R1c-8987 (anti-CD123 TPP-8987 coupled with Intermediate F104) (antibody, human IgG1, kappa, V domains shown)
VH: B1 VH
VL: B1 VL
modifications: reference KSP inhibitor toxophore-linker (from Intermediate F104) on sulfur atoms of cysteine side chains of the partially reduced antibody; DAR 1.5; positions not given
B8: reference ADC R1c-8988 (anti-CD123 TPP-8988 coupled with Intermediate F104) (antibody, human IgG1, kappa, V domains shown)
VH: B2 VH
VL: B2 VL
modifications: reference KSP inhibitor toxophore-linker (from Intermediate F104) on sulfur atoms of cysteine side chains of the partially reduced antibody; DAR 3.4; positions not given
B9: reference ADC R1c-9476 (anti-CD123 TPP-9476 coupled with Intermediate F104) (antibody, human IgG1, kappa, V domains shown)
VH: B1 VH with Q67R
VL: B1 VL
modifications: reference KSP inhibitor toxophore-linker (from Intermediate F104) on sulfur atoms of cysteine side chains of the partially reduced antibody; DAR 3.1; positions not given
B10: reference ADC R1x-9024 (anti-CXCR5 TPP-9024 coupled with Intermediate F104) (antibody, human IgG1, kappa, V domains shown)
VH: B4 VH
VL: B4 VL
modifications: reference KSP inhibitor toxophore-linker (from Intermediate F104) on sulfur atoms of cysteine side chains of the partially reduced antibody; DAR 3.7; positions not given
B11: reference ADC R1x-9574 (anti-CXCR5 TPP-9574 coupled with Intermediate F104) (antibody, human IgG1, kappa, V domains shown)
VH: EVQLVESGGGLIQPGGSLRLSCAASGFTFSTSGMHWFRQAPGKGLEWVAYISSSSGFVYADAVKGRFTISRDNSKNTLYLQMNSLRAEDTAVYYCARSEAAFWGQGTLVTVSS
VL: B5 VL
modifications: reference KSP inhibitor toxophore-linker (from Intermediate F104) on sulfur atoms of cysteine side chains of the partially reduced antibody; DAR 3.9; positions not given
B12: reference ADC R1x-9580 (anti-CXCR5 TPP-9580 coupled with Intermediate F104) (antibody, human IgG1, kappa, V domains shown)
VH: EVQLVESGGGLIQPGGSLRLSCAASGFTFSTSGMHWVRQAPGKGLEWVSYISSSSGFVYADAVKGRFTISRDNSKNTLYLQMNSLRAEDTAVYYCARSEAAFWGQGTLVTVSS
VL: B5 VL
modifications: reference KSP inhibitor toxophore-linker (from Intermediate F104) on sulfur atoms of cysteine side chains of the partially reduced antibody; DAR 3.7; positions not given
B13: anti-CD123 antibody TPP-8987 (antibody, human IgG1, kappa, V domains shown)
VH: B1 VH
VL: B1 VL
notes: Humanized anti-CD123 IgG; In the internalization assays it carried CypHer 5E dye on lysines
B14: anti-CD123 antibody TPP-9476 (antibody, human IgG1, kappa, V domains shown)
VH: B1 VH with Q67R
VL: B1 VL
notes: as for B13
B15: anti-CD123 antibody TPP-8988 (antibody, human IgG1, kappa, V domains shown)
VH: B2 VH
VL: B2 VL
notes: as for B13
B16: anti-CXCR5 antibody TPP-9024 (antibody, human IgG1, kappa, V domains shown)
VH: B4 VH
VL: B4 VL
notes: In the internalization assays it carried CypHer 5E dye on lysines
B17: anti-CXCR5 antibody TPP-9574 (antibody, human IgG1, kappa, V domains shown)
VH: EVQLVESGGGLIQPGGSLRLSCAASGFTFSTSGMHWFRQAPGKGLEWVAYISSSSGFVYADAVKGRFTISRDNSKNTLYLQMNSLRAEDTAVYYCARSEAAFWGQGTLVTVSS
VL: B5 VL
notes: Humanized anti-CXCR5 IgG; In the internalization assays it carried CypHer 5E dye on lysines
B18: anti-CXCR5 antibody TPP-9580 (antibody, human IgG1, kappa, V domains shown)
VH: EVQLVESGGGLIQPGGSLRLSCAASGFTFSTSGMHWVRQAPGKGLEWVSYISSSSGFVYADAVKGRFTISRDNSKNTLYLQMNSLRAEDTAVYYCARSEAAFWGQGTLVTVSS
VL: B5 VL
notes: as for B17

molecular target: T2, surface receptor CD123 (IL3RA) (human, UniProt P26951 19-378); test: cell-based or functional assay
T2 sequence (P26951 19-378 limits assumed): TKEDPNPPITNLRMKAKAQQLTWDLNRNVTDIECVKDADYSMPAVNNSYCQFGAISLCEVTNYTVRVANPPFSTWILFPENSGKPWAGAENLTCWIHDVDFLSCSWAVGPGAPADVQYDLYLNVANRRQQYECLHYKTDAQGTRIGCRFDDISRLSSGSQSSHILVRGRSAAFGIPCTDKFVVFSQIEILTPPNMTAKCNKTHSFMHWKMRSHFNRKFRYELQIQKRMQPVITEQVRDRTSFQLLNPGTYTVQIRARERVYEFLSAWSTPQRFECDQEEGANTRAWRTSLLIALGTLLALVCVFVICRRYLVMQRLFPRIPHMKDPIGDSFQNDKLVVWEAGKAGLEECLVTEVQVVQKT

Row | Binder | IC50 [M] of growth inhibition, MTT assay, MOLM-13 cells (CD123-positive) [M] | IC50 [M] of growth inhibition, MTT assay, MV-4-11 cells (CD123-positive) [M]
1 | B1 | 2.1e-10 | 1.26e-09
2 | B2 | 3.02e-11 | 2.94e-08
3 | B3 | 2.85e-10 | 2.78e-09

molecular target: T1, receptor protein CXCR5 (CD185); test: cell-based or functional assay

Row | Binder | IC50 [M] of growth inhibition, MTT assay, Rec-1 cells (CXCR5-positive) [M]
4 | B4 | 1.34e-10
5 | B5 | 2.94e-11
6 | B6 | 2.78e-09

molecular target: T2, surface receptor CD123 (IL3RA); test: cell-based or functional assay; remark: another data set of the same source

Row | Binder | IC50 [M] of growth inhibition, MTT assay, MOLM-13 cells (CD123-positive) [M] | IC50 [M] of growth inhibition, MTT assay, MV-4-11 cells (CD123-positive) [M]
7 | B7 | 7.57e-08 | 1.33e-07
8 | B8 | 4.26e-09 | 3.27e-08
9 | B9 | 3.04e-10 | 5.3e-09

molecular target: T1, receptor protein CXCR5 (CD185); test: cell-based or functional assay; remark: another data set of the same source

Row | Binder | IC50 [M] of growth inhibition, MTT assay, Rec-1 cells (CXCR5-positive) [M]
10 | B10 | 1.84e-10
11 | B11 | 2.62e-10
12 | B12 | 7.16e-11

molecular target: T2, surface receptor CD123 (IL3RA); test: cell binding assay, CypHer 5E-labelled against unlabelled antibody

Row | Binder | binding result
13 | B13 | binds
14 | B14 | binds
15 | B15 | binds

molecular target: T1, receptor protein CXCR5 (CD185); test: as above

Row | Binder | binding result
16 | B16 | binds
17 | B17 | binds
18 | B18 | binds
